Assay results taken from article PMC10324392, “Enabling Peptide Ligation at Aromatic Junction Mimics via Native Chemical Ligation and Palladium-Mediated S-Arylation”.

B1: biotinylated E-box DNA probe (BLI) (dsDNA)
DNA 1: CCGGCTGACACGTGGTATTAAT
DNA 2: ATTAATACCACGTGTCAGCCGG
B2: E-box DNA probe (22 bp) (dsDNA)
DNA 1: CCGGCTGACACGTGGTATTAAT
DNA 2: ATTAATACCACGTGTCAGCCGG

How the values were obtained:
[1] = target: Max DNA-binding domain (synthetic, S-arylated) (UniProt P61244, F43C, then Cys43 S-arylated with Pd-1 to a Phe mimic); experiment: BLI; EMSA: 10 mM MES, 150 mM KCl, 1 mM MgCl2, 10% glycerol, room temperature 1 h, 10% TBE gel, pH not given; BLI: 1x PBS, 0.1% BSA, 0.02% Tween-20, streptavidin sensors, temperature not given; conditions: chain copies: 2; (22 bp, only one strand printed)
[2] = target: Max DNA-binding domain (synthetic, S-arylated);Myc DNA-binding domain (synthetic, S-arylated) (;, UniProt P61244;P01106 ;, F43C, then Cys43 S-arylated with Pd-1 to a Phe mimic|Y402C, then Cys402 …); experiment: EMSA; equimolar Myc and Max; 1 uM DNA; 0, 4, 8 uM protein; EMSA: 10 mM MES, 150 mM KCl, 1 mM MgCl2, 10% glycerol, room temperature 1 h, 10% TBE gel, pH not given; BLI: 1x PBS, 0.1% BSA, 0.02% Tween-20, streptavidin sensors, temperature not given; conditions: tags: ;; copies: 1;1; (22 bp, only one strand printed)
Sequence of Max DNA-binding domain (synthetic, S-arylated);Myc DNA-binding domain (synthetic, S-arylated) (P61244 22-102, stated change not applied, chain 1 of 2): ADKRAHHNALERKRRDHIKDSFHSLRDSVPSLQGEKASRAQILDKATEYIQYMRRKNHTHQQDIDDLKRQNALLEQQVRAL
Sequence of Max DNA-binding domain (synthetic, S-arylated);Myc DNA-binding domain (synthetic, S-arylated) (P01106 369-449, stated change not applied, chain 2 of 2): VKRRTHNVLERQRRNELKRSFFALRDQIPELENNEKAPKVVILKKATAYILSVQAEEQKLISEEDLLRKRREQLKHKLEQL

Sequence of Max DNA-binding domain (synthetic, S-arylated) (P61244 22-102 F43C): as the sequence (P61244 22-102, stated change not applied, chain 1 of 2) above, with F22C counted along it

Binder | Kd [1] | binding result [2]
B1 | 14.8 ± 0.2 nM | –
B2 | – | binds
